Data reported in PMC4078364, “Complete sucrose hydrolysis by heat-killed recombinant Pichia pastoris cells entrapped in calcium alginate” (Microbial Cell Factories, 2014).

Substrate: OC[C@H]1O[C@@](CO)(O[C@H]2O[C@H](CO)[C@@H](O)[C@H](O)[C@H]2O)[C@@H](O)[C@@H]1O
Experiment: DNSA reducing sugar assay, initial rates, Lineweaver-Burk
Format: cell-based, Thermotoga maritima
Conditions: free (non-immobilized) heat-killed P. pastoris cells with periplasmic enzyme, 10-200 mM sucrose, 50 mM sodium acetate pH 5.5, 60 °C, cell-wall diffusion barrier

B1: BfrA (Thermotoga maritima β-fructosidase) (Thermotoga maritima MSB8) (protein)
chain: MFKPNYHFFPITGWMNDPNGLIFWKGKYHMFYQYNPRKPEWGNICWGHAVSDDLVHWRHLPVALYPDDETHGVFSGSAVEKDGKMFLVYTYYRDPTHNKGEKETQCVAMSENGLDFVKYDGNPVISKPPEEGTHAFRDPKVNRSNGEWRMVLGSGKDEKIGRVLLYTSDDLFHWKYEGVIFEDETTKEIECPDLVRIGEKDILIYSITSTNSVLFSMGELKEGKLNVEKRGLLDHGTDFYAAQTFFGTDRVVVIGWLQSWLRTGLYPTKREGWNGVMSLPRELYVENNELKVKPVDELLALRKRKVFETAKSGTFLLDVKENSYEIVCEFSGEIELRMGNESEEVVITKSRDELIVDTTRSGVSGGEVRKSTVEDEATNRIRAFLDSCSVEFFFNDSIAFSFRIHPENVYNILSVKSNQVKLEVFELENIWL
notes: secreted to periplasm of Pichia pastoris PpBfrA(4x); N-glycosylated, 58 and 53 kDa (51 kDa deglycosylated); assayed in heat-killed whole cells
Km: 99 mM
